In assay [1] the target is T1, S100B.
T1 chain: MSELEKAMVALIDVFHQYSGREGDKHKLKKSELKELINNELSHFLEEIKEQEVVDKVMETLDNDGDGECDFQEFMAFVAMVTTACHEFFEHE
Briefly: fluorescence anisotropy; 5 nM fluorescein labeled peptide titrated with S100B in 50 mM Tris-HCl pH 7.5, 50 mM NaCl, 10 mM CaCl2, 25 C. Background: In fluorescence polarisation assays a small probe gives low polarisation when free and higher when bound to something large.

The target of assay [2] is T1, S100B. Briefly: fluorescence anisotropy, N-terminal fluorescein labeled peptide.

Where no end group is shown, it is not given here. [ ]: non-standard residue; d: D form. fluorescein = N-terminal 5(6)-carboxyfluorescein label; Aib = CC(C)(N)C(=O)O; Ahx = NCCCCCC(=O)O

B1: pBBD-TRTK (branched dimeric Aib substituted TRTK) (peptide)
peptide: TRTKIDW[Aib]KIL[Aib]KAH[Ahx]
chain: Lys-NH2
modifications: also: branched dimer: two identical arms on one branching Lys (chain 2)
notes: This is a branched peptide with two identical arms on one lysine; also called bivalent helically branched peptide
As usually defined, the Kd is a measure of binding affinity in units of concentration. Low values mean a tighter complex, high ones a looser complex. As for B1, in assay [1], the Kd came to 7.7 nM.

B2: pBM-TRTK (Aib substituted TRTK monomer peptide) (peptide)
peptide: fluorescein-TRTKIDW[Aib]KIL[Aib]GGGCG-NH2
notes: The peptide is derived from TRTK-12 (CapZ residues 265-276) with Aib at N8 and S12; also called pBM-TRK
In the case of B2, in assay [2], the Kd was ~300 nM.

These data come from US20140155331A1 (COUNCIL OF SCIENTIFIC AND INDUSTRIAL RESEARCH, published 2014).
